From patent US20150150960A1, “PROTECTION AGAINST DENGUE VIRUS AND PREVENTION OF SEVERE DENGUE DISEASE” (priority 2010, published 2015) come the findings set out here.

The term IC50 denotes the point on the concentration scale where inhibition reaches its midpoint. A lower IC50 goes with inhibition by little substance.

The target in test [1] is target splenocytes pulsed with NS2B108-122, NS3198-212 and NS3237-251 together (I-A^b-restricted).
The target of test [2] is purified HLA B*0702 molecules (human). Kind of test: inhibition of radiolabeled probe peptide binding to purified HLA.
Test [3] concerns the target purified HLA A*0201 molecules (human). Described as above.
In test [4] the target is NS31682-1690 / HLA B*0702 (DENV2 strain S221; human).
Test [5] has as its target NS2B1450-1459 / HLA A*0201 (DENV2 strain S221; human).
Test [6] has as its target NS32013-2022 / HLA A*0201 (DENV2 strain S221; human).
Test [7] deals with NS4A2074-2083 / HLA A*1101 (DENV2 strain S221; human).
The target in test [8] is NS4A2140-2148 / HLA A*0201 (DENV2 strain S221; human).
The target in test [9] is NS2B1356-1370 / HLA DRB1*0101 (DENV2 strain S221; human).
The target in test [10] is NS4B2280-2289 / HLA B*0702 (DENV2 strain S221; human).
Test [11] has as its target NS11090-1099 / HLA A*0101 (DENV2 strain S221; human).
Test [12] deals with NS2B1383-1391 / HLA A*0201 (DENV2 strain S221; human).
Test [13] has as its target NS31863-1871 / HLA A*1101 (DENV2 strain S221; human).
In test [14] the target is NS31700-1709 / HLA B*0702 (DENV2 strain S221; human).
Test [15] has as its target NS31509-1517 / HLA A*1101 (DENV2 strain S221; human).
Test [16] addresses NS31808-1817 / HLA B*0702 (DENV2 strain S221; human).
Test [17] deals with NS53112-3121 / HLA A*1101 (DENV2 strain S221; human).
Test [18] addresses NS31465-1473 / HLA A*0201 (DENV2 strain S221; human).
For test [19], the target named is E451-459 / HLA A*0101 (DENV2 strain S221; human).
In test [20] the target is NS53283-3291 / HLA A*1101 (DENV2 strain S221; human).
For test [21], the target named is NS53079-3087 / HLA A*1101 (DENV2 strain S221; human).
The target in test [22] is NS4B2315-2323 / HLA A*1101 (DENV2 strain S221; human).
Test [23] has as its target NS4A2205-2213 / HLA A*0201 (DENV2 strain S221; human).
Test [24] has as its target NS2A1212-1221 / HLA B*0702 (DENV2 strain S221; human).
In test [25] the target is NS31978-1987 / HLA B*0702 (DENV2 strain S221; human).
Test [26] concerns the target NS53058-3066 / HLA A*0201 (DENV2 strain S221; human).
The target in test [27] is NS4B2399-2407 / HLA A*0101 (DENV2 strain S221; human).
Test [28] deals with NS52646-2655 / HLA B*0702 (DENV2 strain S221; human).
Test [29] deals with NS2A1199-1213 / HLA DRB1*0101 (DENV2 strain S221; human).
Test [30] deals with NS53375-3383 / HLA A*0101 (DENV2 strain S221; human).
The target of test [31] is NS4B2296-2304 / HLA B*0702 (DENV2 strain S221; human).
The target of test [32] is NS31681-1689 / HLA A*0201 (DENV2 strain S221; human).
The target in test [33] is NS2A1251-1259 / HLA A*0101 (DENV2 strain S221; human).
Test [34] addresses NS31608-1617 / HLA A*1101 (DENV2 strain S221; human).
Test [35] concerns the target NS52885-2894 / HLA B*0702 (DENV2 strain S221; human).
The target of test [36] is NS52966-2980 / HLA DRB1*0101 (DENV2 strain S221; human).
For test [37], the target named is NS53077-3085 / HLA B*0702 (DENV2 strain S221; human).
The target in test [38] is NS52608-2616 / HLA A*1101 (DENV2 strain S221; human).
The target in test [39] is NS31753-1761 / HLA B*0702 (DENV2 strain S221; human).
In test [40] the target is NS2B1355-1363 / HLA A*0201 (DENV2 strain S221; human).
The target in test [41] is E631-639 / HLA A*0201 (DENV2 strain S221; human).
For test [42], the target named is C53-67 / HLA DRB1*0101 (DENV2 strain S221; human).
Test [43] deals with NS31742-1756 / HLA DRB1*0101 (DENV2 strain S221; human).
The target of test [44] is NS2A1192-1200 / HLA A*0101 (DENV2 strain S221; human).
Test [45] concerns the target NS4B2280-2289 / HLA B*0702 (DENV2 strain S221; human). The source holds these as a separate data set.
For test [46], the target named is NS32070-2078 / HLA B*0702 (DENV2 strain S221; human).

A value given as a limit tells only on which side of the number the result lay.

In turn, “CD4+ T cells of DENV2-infected IFN-α/βR-/- mice (C57BL/6 background) (cells without a defined receptor)” gave an in vivo cytotoxicity assay, percentage killing in test [1] of 30%.
NS4B2296-2305 (peptide) had a concentration for half-maximal inhibition (IC50) in [2] above 1 µM.
The substance NS31681-1689 (peptide) returned an IC50 in test [3] of 0.018 µM.
“PBMC from HLA matched DENV seropositive human donors (cells without a defined receptor)”: the T cell responses [SFC] human (IFNγ ELISPOT) in test [4] came to 207 SFC; in test [5], 588 SFC; in test [6], 312 SFC; in test [7] it was 3090 SFC; in [8], 297 SFC; in test [9], 279 SFC. Further, the T cell responses [SFC] human (IFNγ ELISPOT) in test [10] was found to be 0 SFC; in test [11] it was 104 SFC; in test [12], 434 SFC; in [13] it was 0 SFC; in test [14], 1430 SFC; in [15] it was 0 SFC. Moreover, the T cell responses [SFC] human (IFNγ ELISPOT) worked out at 232 SFC in [16]; 0 SFC in test [17]; 495 SFC in test [18]; 67 SFC in test [19]; 800 SFC in test [20]; 0 SFC in test [21]. In addition, the T cell responses [SFC] human (IFNγ ELISPOT) in [22] came to 0 SFC; in test [23], 301 SFC; in [24], 335 SFC; in test [25], 1820 SFC; in test [26], 597 SFC; in test [27] it was 92 SFC. Moreover, the T cell responses [SFC] human (IFNγ ELISPOT) in test [28] came to 0 SFC; in test [29] it was 249 SFC; in [30], 143 SFC; in test [31], 460 SFC; in [32], 401 SFC; in [33], 143 SFC. Also, the T cell responses [SFC] human (IFNγ ELISPOT) in test [34] is 880 SFC; in test [35], 1340 SFC; in test [36], 729 SFC; in [37] it was 390 SFC; in test [38], 0 SFC; in [39], 410 SFC. Further, the values for the T cell responses [SFC] human (IFNγ ELISPOT) in [40], in test [41] and in test [42] were 417 SFC, 393 SFC and 314 SFC, respectively.
As for “splenic CD4+ T cells of DENV2 (S221)-infected HLA DRB1*0101 transgenic IFN-α/βR-/- mice (cells without a defined receptor)”, the T cell responses [SFC] mouse (IFNγ ELISPOT) in test [9] is 65 SFC; in test [29], 764 SFC; in test [43] it was 448 SFC; in test [36], 851 SFC; in test [42], 77 SFC.
“splenic CD8+ T cells of DENV2 (S221)-infected HLA A*0101 transgenic IFN-α/βR-/- mice (cells without a defined receptor)”: the T cell responses [SFC] mouse (IFNγ ELISPOT) in test [11] is 228 SFC; in test [44] it was 430 SFC; in test [19] it was 327 SFC; in [27] it was 153 SFC; in [30], 495 SFC; in [33], 465 SFC.
Regarding “splenic CD8+ T cells of DENV2 (S221)-infected HLA A*0201 transgenic IFN-α/βR-/- mice (cells without a defined receptor)”, the T cell responses [SFC] mouse (IFNγ ELISPOT) in test [6] is 417 SFC; in test [8], 384 SFC; in test [12] it was 519 SFC; in test [18] it was 207 SFC; in test [26], 353 SFC; in test [32], 299 SFC. For the same substance, the T cell responses [SFC] mouse (IFNγ ELISPOT) in test [41] came to 265 SFC.
Turning to “splenic CD8+ T cells of DENV2 (S221)-infected HLA A*1101 transgenic IFN-α/βR-/- mice (cells without a defined receptor)”, the T cell responses [SFC] mouse (IFNγ ELISPOT) in test [7] is 148 SFC; in test [13], 208 SFC; in test [15], 436 SFC; in test [20] it was 358 SFC; in test [21], 105 SFC; in test [22] it was 712 SFC. In test [34], the T cell responses [SFC] mouse (IFNγ ELISPOT) worked out at 1000 SFC.
In test [45], “splenic CD8+ T cells of DENV2 (S221)-infected HLA B*0702 transgenic IFN-α/βR+/+ mice (cells without a defined receptor)” had an IFNγ ELISPOT (SFC/10^6 CD8+ T cells) of 50.
Consider “splenic CD8+ T cells of DENV2 (S221)-infected HLA B*0702 transgenic IFN-α/βR-/- mice (cells without a defined receptor)”, for which the T cell responses [SFC] mouse (IFNγ ELISPOT) stood at 1290 SFC in [4]; 1540 SFC in test [10]; 1060 SFC in test [14]; 1850 SFC in [46]; 364 SFC in test [16]; 400 SFC in test [24]. The T cell responses [SFC] mouse (IFNγ ELISPOT) in [28] came out at 994 SFC; in test [31], 1010 SFC; in [35], 811 SFC; in test [37], 487 SFC; in [39], 509 SFC.
